Measurements published in patent US20180258163A1 (Chugai, published 2018).
Substitutions are numbered along the chain they refer to. Each block holds one binder with its values, some of them ahead of it.

Columns and labels:
human IL-8 [1] = target: T1, human IL-8 (human, UniProt P10145 23-99, limits assumed); experiment: SPR pH 5.8 37C
T1 construct: also called hIL-8
T1 sequence: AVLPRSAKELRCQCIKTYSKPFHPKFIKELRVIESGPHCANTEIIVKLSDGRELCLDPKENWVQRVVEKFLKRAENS
Procedure: (§1) The following two running buffers were used, and measurements were carried out at the respective temperatures: (1) 0.05% tween20, 40 mM ACES, 150 mM NaCl, pH 7.4, 40° C.: and (2) 0.05% tween20, 40 mM ACES, 150 mM NaCl, pH 5.8, 37° C.
(§2) An appropriate amount of Protein A/G (PIERCE) was immobilized onto the Sensor chip CM4 (GE Healthcare) by the amine coupling method and the antibodies of interest were captured. Next, a diluted human IL-8 solution or a running buffer (used as a reference solution) was injected to allow interaction of the antibodies captured onto the sensor chip with human IL-8. For the running buffer, either one of the above-mentioned solutions was used, and the respective buffers were also used to dilute human IL-8. To regenerate the sensor chip, 25 mM NaOH and 10 mM glycine-HCl (pH 1.5) were used. KD (M) of each antibody for human IL-8 was calculated based on the association rate constant kon (1/Ms) and dissociation rate constant koff (1/s) which are kinetic parameters calculated from sensorgrams obtained by the measurements. The BIACORE T200 Evaluation Software (GE Healthcare) was used to calculate each parameter.

human IL-8 [2] = target: T1, human IL-8; experiment: SPR pH 7.4 40C
Procedure: as §1, §2

[3] = target: T2, soluble cynomolgus monkey FcγRIIIa (cynomolgus monkey, UniProt Q8SPW2 17-208, limits assumed); experiment: SPR, Ab captured on Protein L, 20C
T2 construct: soluble His-tagged form; also called cynoFcγRIIIa
T2 sequence (Q8SPW2 17-208 limits assumed): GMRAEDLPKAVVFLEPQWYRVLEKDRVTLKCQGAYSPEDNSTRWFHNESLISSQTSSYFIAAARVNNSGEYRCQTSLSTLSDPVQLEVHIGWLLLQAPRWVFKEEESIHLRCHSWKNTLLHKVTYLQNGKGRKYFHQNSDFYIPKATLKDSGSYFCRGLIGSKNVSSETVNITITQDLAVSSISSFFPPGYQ
Procedure: (§3) Soluble FcγRIa and FcγRIIIa in both human and cynomolgus monkey were produced in the form of His-tagged molecules by methods known to those of ordinary skill in the art. An appropriate amount of rProtein L (BioVision) was immobilized onto the Sensor chip CM4 (GE Healthcare) by the amine coupling method and antibody of interest was captured. Next, soluble FcγRIa or FcγRIIIa was injected with a running buffer (used as a reference solution), and was made to interact with the antibodies captured onto the sensor chip. HBS-EP+ (GE Healthcare) was used as the running buffer, and HBS-EP+ was also used to dilute the soluble FcγRIa or FcγRIIIa. To regenerate the sensor chip, 10 mM glycine-HCl at pH 1.5 was used. All measurements were carried out at 20° C.

soluble human FcγRIa = target: T3, soluble human FcγRIa (human, UniProt P12314 16-292, limits assumed); experiment: SPR, Ab captured on Protein L, 20C
T3 construct: soluble His-tagged form; also called hFcγRIa
T3 sequence (P12314 16-292 limits assumed): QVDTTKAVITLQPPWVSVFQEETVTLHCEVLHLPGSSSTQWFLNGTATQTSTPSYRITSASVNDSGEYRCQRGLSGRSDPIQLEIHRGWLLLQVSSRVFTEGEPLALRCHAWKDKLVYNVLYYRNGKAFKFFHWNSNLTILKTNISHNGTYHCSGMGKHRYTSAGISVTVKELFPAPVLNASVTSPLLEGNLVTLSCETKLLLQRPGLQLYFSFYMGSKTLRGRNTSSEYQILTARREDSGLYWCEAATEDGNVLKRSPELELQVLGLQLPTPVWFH
Procedure: as §3

soluble human FcγRIIIa = target: T4, soluble human FcγRIIIa (human, UniProt P08637 17-208, limits assumed); experiment: SPR, Ab captured on Protein L, 20C
T4 construct: soluble His-tagged form; also called hFcγRIIIa
T4 sequence (P08637 17-208 limits assumed): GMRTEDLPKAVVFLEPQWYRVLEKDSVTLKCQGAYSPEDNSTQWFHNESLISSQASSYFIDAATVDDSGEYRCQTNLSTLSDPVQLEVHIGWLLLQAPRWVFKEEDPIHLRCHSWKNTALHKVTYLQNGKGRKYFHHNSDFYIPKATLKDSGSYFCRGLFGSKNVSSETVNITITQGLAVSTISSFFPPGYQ
Procedure: as §3

- Kd (human IL-8 [1]): 7.1 µM
- koff (human IL-8 [1]): 0.017 s⁻¹
- Kd (human IL-8 [2]): 0.00012 µM
B1: H1023/L0442 (antibody, human IgG1, kappa, name in Kabat numbering, V domains shown)
VH: QVQLVESGGGLVQPGGSLRLSCAASGFTFSDYYLSWVRQAPGKGLEWVGLIRNKDNGYHPEYSASVKGRFTISRDDSKNSLYLTMSDLKTEDTAVYYCARENHRYDVELAYWGQGTLVTVSS
VL: DIQMTQSPSSLSASVGDRVTITCRASEIIYEYLAWYQQKPGKAPKLLIYKAKTHADGVPSRFSGSGSGTDFTFTISSLQPEDIATYYCKHHFGFPRTFGQGTKVEIKR

- binding result [3]: no binding
- binding result (soluble human FcγRIa): no binding
- binding result (soluble human FcγRIIIa): no binding
B2: H1009/L395-F1886s (antibody)
heavy: QVQLVESGGGLVQPGGSLRLSCAASGFTFSDYYLSWVRQAPGKGLEWVGLIRNKDNYHTPEYSASVKGRFTISRDDSKNSLYLTMSDLKTEDTAVYYCARENHRYDVELAYWGQGTLVTVSSASTKGPSVFPLAPSSKSTSGGTAALGCLVKDYFPEPVTVSWNSGALTSGVHTFPAVLQSSGLYSLSSVVTVPSSSLGTQTYICNVNHKPSNTKVDKKVEPKSCDKTHTCPPCPAPELRRGPKVFLFPPKPKDTLMISRTPEVTCVVVDVSHEDPEVKFNWYVDGVEVHNAKTKPREEQYNSTYRVVSVLTVLHQDWLNGKEYKCKVSNKALPAPIEKTISKAKGQPREPQVYTLPPSREEMTKNQVSLTCLVKGFYPSDIAVEWESNGQPENNYKTTPPVLDSDGSFFLYSKLTVDKSRWQQGNVFSCSVLHEALHAHTTRKELSLSP
light: DIQMTQSPSSLSASVGDRVTITCRASEIIYSYLAWYQQKPGKAPKLLIYKAKTHADGVPSRFSGSGSGTDFTFTISSLQPEDIATYYCKHHFGFPRTFGQGTKVEIKRTVAAPSVFIFPPSDEQLKSGTASVVCLLNNFYPREAKVQWKVDNALQSGNSQESVTEQDSKDSTYSLSSTLTLSKADYEKHKVYACEVTHQGLSSPVTKSFNRGEC
notes: copies: 2 + 2

- binding result [3]: no binding
- binding result (soluble human FcγRIa): no binding
- binding result (soluble human FcγRIIIa): no binding
B3: H1009/L395-F1974m (antibody)
heavy: B2 heavy with K244S, A332G, A335S, P336S
light: B2 light
notes: copies: 2 + 2
